Among the data in paper PMC12121997 are percent of NCP-coated beads that bound microtubules values, retold here.

The target of experiment [1] is Nucleosome core particle: Cse4-containing histone octamer wrapped with chimeric centromeric DNA (CCEN) (S. cerevisiae | K. lactis) (UniProt P36012). The experiment can be described thus: optical trap assay (bead-microtubule binding, then rupture force); 40 nM His6-NCPs held on anti-His6 polystyrene beads; 10 nM OA or 20 nM Mif2, 10 nM 2D-MIND, 10 nM Ndc80c and 5 nM Dam1c free in solution; bead brought by laser trap to the dynamic plus end of a surface-anchored microtubule; 1x BRB80, 1 mM GTP, 16 uM tubulin, room temperature; 1 pN preload, then ramping force until detachment; negative controls with OA or Mif2 omitted.

For experiment [2], the target named is Nucleosome core particle: Cse4-containing histone octamer wrapped with Widom 601 DNA (S. cerevisiae | K. lactis) (UniProt P36012). The description is as above.

Bounds are passed on as bounds.

As for “Mif2-linker-(27-392)MBP (from UniProt P35201 1-549) (natural protein)”, the percent of NCP-coated beads that bound microtubules in experiment [1] and in experiment [2] was greater than 78% each time.
